# Results published in patent US20250084188A1 (published 2025).
# Molecular target: human chitinase-3-like protein 1 (hCHI3L1) (human, UniProt P36222 22-383)
# Test: ELISA
# human chitinase-3-like protein 1 (hCHI3L1), sequence (P36222 22-383): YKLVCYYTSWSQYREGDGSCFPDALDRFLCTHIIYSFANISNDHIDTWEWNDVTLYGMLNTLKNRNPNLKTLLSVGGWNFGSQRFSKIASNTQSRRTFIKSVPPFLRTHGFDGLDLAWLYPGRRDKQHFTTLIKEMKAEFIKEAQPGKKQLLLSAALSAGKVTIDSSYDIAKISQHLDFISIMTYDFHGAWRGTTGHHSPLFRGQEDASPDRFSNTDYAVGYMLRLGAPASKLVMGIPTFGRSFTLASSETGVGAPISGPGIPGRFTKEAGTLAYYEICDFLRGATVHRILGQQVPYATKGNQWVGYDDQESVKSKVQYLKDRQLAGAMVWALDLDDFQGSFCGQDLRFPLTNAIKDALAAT
row,Binder,EC50 [nM]
1,"D2 (IgG) (antibody, V domains shown) VH: EVQLVESGGGLVQPGGSLRLSCAASGFTFSSYAMHWVRQAPGKGLEWVSAISSSSGTIYYADSVKGRFTISRDNSKNTLYLQMNSLRAEDTAVYYCAKDFGAVFDYWGQGTLVTVSS VL: not shown",0.577
2,"1E12 (IgG) (antibody, V domains shown) VH: EVQLVESGGGLVQPGGSLRLSCAASGFTFSSYAMHWVRQAPGKGLEWVSAISSSGGTKYYADSVKGRFTISRDNSKNTLYLQMNSLRAEDTAVYYCAKGLQGGAGAFDIWGQGTLVTVSS VL: DIQMTQSPSSLSASVGDRVTITCRASQSISNYLNWYQQKPGKAPKLLIYATSTLHSGVPSRFSGSGSGTDFTLTISSLQPEDFATYYCQQSYSFPWTFGQGTKVEIK",0.139
3,"A5 (IgG) (antibody, V domains shown) VH: not shown VL: DIQMTQSPSSLSASVGDRVTITCRASQSISRWLNWYQQKPGKAPKLLIYATSTLQSGVPSRFSGSGSGTDFTLTISSLQPEDFATYYCQQSYSFPWTFGQGTKVEIK",0.972
4,"H7 (IgG) (antibody, V domains shown) VH: EVQLVESGGGLVQPGGSLRLSCAASGFTFSSYGMHWVRQAPGKGLEWVSGISSSGGSKYYADSVKGRFTISRDNSKNTLYLQMNSLRAEDTAVYYCAKHGHQQMDFWGQGTLVTVSS VL: DIQMTQSPSSLSASVGDRVTITCRASQSISSWLNWYQQKPGKAPKLLIYAASRLQSGVPSRFSGSGSGTDFTLTISSLQPEDFATYYCQQTYSFPWTFGQGTKVEIK",1.38
5,"F4 (IgG) (antibody, V domains shown) VH: not shown VL: DIQMTQSPSSLSASVGDRVTITCRASQSISRWLNWYQQKPGKAPKLLIYAASRLQSGVPSRFSGSGSGTDFTLTISSLQPEDFATYYCQQSYSTPWTFGQGTKVEIK",0.111
6,"A7 (IgG) (antibody, V domains shown) VH: EVQLVESGGGLVQPGGSLRLSCAASGFTFSDYAMSWVRQAPGKGLEWVSGISSSGGTIYYADSVKGRFTISRDNSKNTLYLQMNSLRAEDTAVYYCAKAIGSWADIWGQGTLVTVSS VL: DIQMTQSPSSLSASVGDRVTITCRASQDISNYLNWYQQKPGKAPKLLIYAASSLQSGVPSRFSGSGSGTDFTLTISSLQPEDFATYYCQQSYSFPYTFGQGTKVEIK",2.05
7,"C5 (IgG) (antibody, V domains shown) VH: EVQLVESGGGLVQPGGSLRLSCAASGFTFSSYAMSWVRQAPGKGLEWVSSISSSSGTTHYADSVKGRFTISRDNSKNTLYLQMNSLRAEDTAVYYCAKGGAFDYWGQGTLVTVSS VL: DIQMTQSPSSLSASVGDRVTITCRASQDISRWLNWYQQKPGKAPKLLIYAASTLQSGVPSRFSGSGSGTDFTLTISSLQPEDFATYYCQQSYSFPLTFGQGTKVEIK",0.093
8,"F2 (IgG) (antibody, V domains shown) VH: EVQLVESGGGLAQPGGSLRLSCAASGFTFSSYAMHWVRQAPGKGLEWVSSIKSSGGSKNYADSVKGRFTISRDNSKNTLYLQMNSLRAEDTAVYYCAKGYGASFDFWGQGTLVTVSS VL: DIQMTQSPSSLSASVGDRVTITCRASQDISSWLNWYQQKPGKAPKLLIYAASRLQSGVPSRFSGSGSGTDFTLTISSLQPEDFATYYCQQAYSFPWTFGQGTKVEIK",1.75
9,"H1 (IgG) (antibody, V domains shown) VH: EVQLVESGGGLVQPGGSLRLSCAASGFTFSSYAMSWVRQAPGKGLEWVSAIRSSGGTTYYADSVKGRFTISRDNSKNTLYLQMNSLRAEDTAVYYCAKSQSTVADYWGQGTLVTVSS VL: DIQMTQSPSSLSASVGDRVTITCRASQSISNWLNWYQQKPGKAPKLLIYATSRLQSGVPSRFSGSGSGTDFTLTISSLQPEDFATYYCQQSYSFPLTFGQGTKVEIK",0.496
10,"E7 (IgG) (antibody, V domains shown) VH: EVQLVESGGGLVQPGGSLRLSCAASGFTFSSYAMHWVRQAPGKGLEWVSAISSSGGSIYYADSVKGRFTISRDNSKNTLYLQMNSLRAEDTAVYYCAKQGLSFDIWGQGTLVTVSS VL: DIQMTQSPSSLSASVGDRVTITCRASQSISNWLNWYQQKPGKAPKLLIYATSRLQSGVPSRFSGSGSGTDFTLTISSLQPEDFATYYCQQSYSFPYTFGQGTKVEIK",0.348
